From PMC10140343

Molecular target: recombinant ScCD8α extracellular IgSF V domain (Ser20-Met163) (small-spotted catshark (Scyliorhinus canicula))
Assay: native gel or EMSA; PAGE under non-reducing conditions of purified recombinant ScCD8α; Tris-Gly buffer pH 4.4, ice-water bath, 120 V, 2 h; band of approx. 32 kDa against approx. 16 kDa in reducing SDS-PAGE

stoichiometry N: 2
Substance: recombinant ScCD8α extracellular IgSF V domain (Ser20-Met163) (domain or fragment)
